According to patent publication US20190300618A1 (Merck Sharp & Dohme, published 2019):
Substitutions are numbered along the chain they refer to.

B1: Humanized CD27 131A VH6/VL7-hIgG1 (antibody, V domains shown)
VH: EIQLVQSGAEVKKPGASVKVSCKASGYTFTNYGMNWVKQAPGQGLKWMGWINTNTGEPTYAEEFKGRFTFTLDTSISTAYMELSSLRSEDTAVYYCAREGDAMDYWGQGTTVTVSS
VL: EIVLTQSPATLSLSPGERATLSCSASSSVSYMHWYQQKPGQAPKRWIYDTSKLASGVPARFSGSGSGTSYSLTISSLEPEDFATYYCQQWNSYPFTFGQGTKLEIK
notes: human IgG1 constant region; also called hCD27.131A VH6VL7 hulgG1
B2: Humanized CD27 131A VH9/VL9-hIgG1 (antibody, V domains shown)
VH: B1 VH with K38R, I76A
VL: DIQLTQSPSTLSASVGDRVTITCSASSSVSYMHWYQQKPGKAPKRWIYDTSKLASGVPARFSGSGSGTDYTLTISSLQPEDFATYYCQQWNSYPFTFGQGTKLEIK
notes: human IgG1 constant region; also called hCD27.131A VH9VL9 hulgG1
B3: Humanized CD27 131A VH8/VL8-hIgG1 (antibody, V domains shown)
VH: B1 VH with S88N
VL: B1 VL with L13A, A19V, S69D, L77M, T84V
notes: human IgG1 constant region; also called hCD27.131A VH8VL8 hulgG1
B4: Humanized CD27 131A VH7/VL6-hIgG1 (antibody, V domains shown)
VH: B1 VH with V20I, I76A, S77T, M81L, L83I
VL: B1 VL with S69D, T84V
notes: human IgG1 constant region; also called hCD27.131A VH7VL6 hulgG1
B5: Humanized CD27 131A VH8/VL7-hIgG1 (antibody, V domains shown)
VH: B1 VH with S88N
VL: B1 VL
notes: human IgG1 constant region; also called hCD27.131A VH8VL7 hulgG1
B6: Humanized CD27 131A VH7/VL8-hIgG1 (antibody, V domains shown)
VH: B1 VH with V20I, I76A, S77T, M81L, L83I
VL: B1 VL with L13A, A19V, S69D, L77M, T84V
notes: human IgG1 constant region; also called hCD27.131A VH7VL8 hulgG1
B7: Humanized CD27 131A VH6/VL8-hIgG1 (antibody, V domains shown)
VH: B1 VH
VL: B1 VL with L13A, A19V, S69D, L77M, T84V
notes: human IgG1 constant region; also called hCD27.131A VH6VL8 hulgG1
B8: Humanized CD27 131A VH7/VL7-hIgG1 (antibody, V domains shown)
VH: B1 VH with V20I, I76A, S77T, M81L, L83I
VL: B1 VL
notes: human IgG1 constant region; also called hCD27.131A VH7VL7 hulgG1
B9: Humanized CD27 131A VH8/VL6-hIgG1 (antibody, V domains shown)
VH: B1 VH with S88N
VL: B1 VL with S69D, T84V
notes: human IgG1 constant region; also called hCD27.131A VH8VL6 hulgG1

Tests used:
[1] = biological target: human CD27 (A59T), expressed on cells (human) (UniProt P26842); assay: flow cytometry, transiently transfected CHO-K1; empty vector: GM FITC 212
[2] = biological target: human CD27 (wild type), expressed on cells (human) (UniProt P26842); assay: as above
[3] = biological target: human CD27 (A59T), expressed on cells (human) (UniProt P26842); assay: flow cytometry, transiently transfected CHO-K1; empty vector: + 5.32
[4] = biological target: human CD27 (wild type), expressed on cells (human) (UniProt P26842); assay: as above
[5] = biological target: T1, human CD27 (wild type), expressed on cells (human, UniProt P26842 21-260); assay: flow cytometry on primary T cells
T1 construct: on transfected CHO-K1 / CHOK1 cells, transfected HEK293FT reporter cells or primary human T cells; also called hCD27; HsCD27
Experimental: Labeled cells were washed by re-suspending them in 150 ul of staining buffer (SB) followed by centrifugation at 300 g for 5 minutes. Cells were then resuspended in 100 ul of SB containing primary anti-CD27 antibodies at various concentrations, incubated in the dark at 4° C. for 30 minutes, followed by washing and centrifugation steps as previously described. […] Cells were incubated for 30 minutes at 4° C. in the dark, followed by washing and centrifugation steps. Next, cells were stained with a cocktail of phenotypic antibodies for surface markers (CD3, CD4, CD8, CD11b) and incubated for 30 minutes at 4° C. in the dark, followed by washing and centrifugation steps. […] Samples were acquired in a LSR-Fortessa flow cytometer (BD Biosciences) using the high throughput sampler and data analyzed by FlowJo software (Tree Star Inc).

Molecule	EC50 above that of 131AVH6VL6-hIgG1 [5] [%]	further results
Fc-mCD70 (Fc fusion)		GM FITC [1]: 1060; GM FITC [2]: 1280; cells in the + gate [3]: 52.5%; cells in the + gate [4]: 58.9%
B1	≤ 10	
B2	≤ 10	
B3	≤ 10	
B4	≤ 10	
B5	≤ 10	
B6	≤ 10	
B7	≤ 10	
B8	≤ 10	
B9	≤ 10	
